Measurements reported in the DeepSol protein solubility set.

experiment: soluble on expression in E. coli; label from the status in PepcDB or PDB records

Sequence | soluble on expression in E. coli
MVSDAHFQGQFEVELKYRVKNHDAFLNMVKQIEHEVMFENNQESDWFYDTPQRTLTQQGKSLVLREIQPAGIKLWIVKGPEADRCEATNITKLDSAQSMLENMGYEVIQCSKKIRSIFFVGEFHITLDFLDGFGHFAEFAIMTDDETALARYRERLVALAQQFHLSEADREHRSYKEILSALEHHHHHH | soluble
MVSKLVKIEPKFKLIEKDGKGEYFIAKYNILPENLLVYGPEQELKKINTIQTNVKEFDTRTLFVSDYLEVVPPNPLVMFEKSHVVVNIYLNKLEHHHHHH | not soluble
MVSRSFFLTHTFKDVSKLGEGGSYSSDIEVRHDIPWKIRIFKKEGFLGVNLHCEKEECFETKKWTFQTKFTMKLVAVSDFPVSQHDSDNSFVLKHNFKNISRLVEDERDYSDTEKHYNALWSFKIRKFNEHLGIWLICEKEIWEERRWSINLQYELKLISASGKVRSAQYTNVFGVGSLWGILKFISWNNLEKDYVTNDSIDVEVLVKIIEFTELPCTEKTFVLSHIVKNMSSIEDGWKTFSDTQTRFNIPWKLQIRRQDGFVELLLHCSKQLDESRSWSIKTEYQFKLVSTNGRSVAFYGEKVFEKPVGSGWDKLIRWENWASRCNDEFVFEASVRILNTTGIEDENDVDRFSGFAIPVEGQEYSMEKWLEMAFDH | not soluble
MVSTDWKSDLRQRGYRLTPQRQLVLEAVDTLEHATPDDILGEVRKTASGINISTVYRTLELLEELGLVSHAHLGHGAPTYHLADRHHHIHLVCRDCTNVIEADLSVAADFTAKLREQFGFDTDMKHFAIFGRCESCSLKGSTTDS | soluble
MVSYKLTYFDGRGAGELCRQIFAAAEQKYEDNRLTDEEWEKFKAAGKTPYNQLPMLEVDGKPLAQSHAMARYLAREFGFNGKSRWEEAQVNSLADQYKDYYAEARPYLAVKLGYTEGDAEALYTSVYLPVFKKHYGFFVNALKASGSGFLVGNSLTFIDLLVAQHSADLLGREKSDLFNDVPEMKAHSEKVQSIPQIKKWIETRPASDW | not soluble
MVTEAMKAKAEVYHGDKTCREKFGSLLSEIGLPNRLLSNKEIKECGYVKDTGFVWLKHKEKKKEDQKRRYQDLLRFDNVVVCFEDEVTAYFEPNRIKKLTGVKAKEFMVWISLGEIQVNRSSGLITFKTEVGLLSKSLPLSVFEDVHGDDHDLKEKPKKELKLNKTKIYLY | not soluble
MVTLILLAGGSGTRASLNLPKQYYRIEEKMVIEYTLENVSRVKGVDNIILVSNPRFMDTALELKESFPKIKDVAKGGRTRNESIYNGFMKVPQKESKILVHDAVRPFTPRWVFERIISLLDERDVITTVNPITGNLIELDNGKVKRIYDRSKFAIGEAPTGYRYGALKKTLEVAVSNGTLNEIPHDIVLAMNAGFDVYVLPCNCFNLKITFKEDIEIARTLIKMLEERE | soluble
MVTLYGIKNCDTIKKARRWLEANNIDYRFHDYRVDGLDSELLNGFINELGWEALLNTRGTTWRKLDETTRNKITDAASAAALMTEMPAIIKRPLLCAPGKPMLLGFSDSSYQQFFHEV | not soluble
MVYDLAIIGGGINGCGIARDAAGRGHSVFLCEMNDLASGTSSWSTKLIHGGLRYLEYFEFRLVREALIERERLWQIAPHIIGPLRFVLPHHDGLRPAWRLRLGLFMYDYLGGRKLLPPTRSVDLAHDEVGKPLIPGRYTKGFEYSDCFVDDARLVVLTARDAAERGAEIRTRTRAVQVSQQGGIWQVTLEDVGSGARSTIQARALVNAAGPWVEGVLRSGAGVDARYKVRLVQGSHIVTRKLYDHDRAYIFQNADGRIVFAIPYQGDFTLIGTTDRDYHGDPSQVKATPEEIDYLCKAVSGYFAKPVTPADVVWTFSGVRPLYDDGASEAKAATRDYVFELDTPGGAPLLSIYGGKITTYRRLAEEALEKLSSYLKGGTAKQGWTAHQPLPGGDFPVDGGPALIGDLLREYPFLASAHASRLVHAYGTRARDVLGSAKSAADLGRDFGATLTEAEVRYLMSREWACSADDIVWRRSKLGLRLTPAAVAALDEWVIVHRAAEKPQQQAGGRALEHHHHHH | not soluble
MWEHDIVLEKIVDPVPDALYPCCIKAVRVGLKEDSWGEVQAIEEEMSTAELTANVNVALAPFQRKVVKEEGEAKKTKRAASKGRVEEVEQDVWKTLFDQALAYRDLAPWTWMDDDQIFAVVTPDGESLYCTVIGALGQEYGLVIYMGEEGYACLQDILSGTLHPKDAVFKERALLVSLAPRNHLERDDKALLRKHHIPVSGKQLLPMFRSFVPGYYPWFLSEEEAAWAAMALEQAVVVAERLRDGELFLASSARGNRLFARIAERREDGLHWRDGWVPPPKAKKKETSALDIGTDELAKAKTLERAPLFVEFSVAYVNRPIQERRWERPYFPLLVLAADAASGVILHHQVFRGQTDAKTLQQSFLAFARALGCVPSHVRVTKEHGPLLAPLLRELGVNMSTGPTPRSDEVRELFEQFAI | not soluble
MWLSGARLVLPDRVLTEGSLRLEGERIAEVREGFVPSGMDLRGFTVVPGLVDLHGDSLERELEPRPGVRLPLELALPSWELRQLAAGITTVYATVAFWEGAGGVREPDQGLRLAQELWGLRSALHVDLRIHARYEVSRPQGEPAVREALRKGWVHLLSFMDHTPGQGQFHDLETYVRYMARHHGRPEAEVYDEVKRLSTRATWEGLEALAAEALAKSIPLASHDDDTPDRVALMARLGVTVSEFPVRLEAAKEAKVRGMTVVMGAPNALRGGSHHGNLSALDALREGLLDALATDYLPEAALRAPFRLAAQGLLDLPLALALVTRRPALAVGLADRGALAPGLRADLVVLKESPFSVLGAFVAGKPVFVGGELAHALA | soluble
MWLWRKLWGIGGTMSRNTEATDDVKTWTGGPLNYKEGFFTQLATDELAKGINEEVVRAISAKRNEPEWMLEFRLNAYHAWLEMEEPHWLKAHYDKLNYQDYSYYSAPSCGNCDDNCASEPGAVQQTGANAFLSKEVEAAFEQLGVPVREGKEVAVDAIFDSVSVATTYREKLAEQGIIFCSFGEAIHDHPELVRKYLGTVVPGNDNFFAALNAAVASDGTFIYVPKGVRCPMELSTYFRINAEKTGQFERTILVADEDSYVSYIEGCSAPVRDSYQLHAAVVEVIIHKNAEVKYSTVQNWFPGDNNTGGILNFVTKRALCEGENSKMSWTQSETGSAITWKYPSCILRGDNSIGEFYSVALTSGHQQADTGTKMIHIGKNTKSTIISKGISAGHSQNSYRGLVKIMPTATNARNFTQCDSMLIGANCGAHTFPYVECRNNSAQLEHEATTSRIGEDQLFYCLQRGISEEDAISMIVNGFCKDVFSELPLEFAVEAQKLLAISLEHSVG | soluble
MWNMLIVAMCLALLGCLQAQELQGHVSIILLGATGDLAKKYLWQGLFQLYLDEAGRGHSFSFHGAALTAPKQGQELMAKALESLSCPKDMAPSHCAEHKDQFLQLSQYRQLKTAEDYQALNKDIEAQLQHAGLREAGRIFYFSVPPFAYEDIARNINSSCRPGPGAWLRVVLEKPFGHDHFSAQQLATELGTFFQEEEMYRVDHYLGKQAVAQILPFRDQNRKALDGLWNRHHVERVEIIMKETVDAEGRTSFYEEYGVIRDVLQNHLTEVLTLVAMELPHNVSSAEAVLRHKLQVFQALRGLQRGSAVVGQYQSYSEQVRRELQKPDSFHSLTPTFAGVLVHIDNLRWEGVPFILMSGKALDERVGYARILFKNQACCVQSEKHWAAAQSQCLPRQLVFHIGHGDLGSPAVLVSRNLFRPSLPSSWKEMEGPPGLRLFGSPLSDYYAYSPVRERDAHSVLLSHIFHGRKNFFITTENLLASWNFWTPLLESLAHKAPRLYPGGAENGRLLDFEFSSGRLFFSQQQPEQLVPGPGPAPMPSDFQVLRAKYRESPLVSAWSEELISKLANDIEATAVRAVRRFGQFHLALSGGSSPVALFQQLATAHYGFPWAHTHLWLVDERCVPLSDPESNFQGLQAHLLQHVRIPYYNIHPMPVHLQQRLCAEEDQGAQIYAREISALVANSSFDLVLLGMGADGHTASLFPQSPTGLDGEQLVVLTTSPSQPHRRMSLSLPLINRAKKVAVLVMGRMKREITTLVSRVGHEPKKWPISGVLPHSGQLVWYMDYDAFLG | soluble
MWPLALVIASLTLALSGGVSQESSKVLNTNGTSGFLPGGYTCFPHSQPWQAALLVQGRLLCGGVLVHPKWVLTAAHCLKEGLKVYLGKHALGRVEAGEQVREVVHSIPHPEYRRSPTHLNHDHDIMLLELQSPVQLTGYIQTLPLSHNNRLTPGTTCRVSGWGTTTSPQVNYPKTLQCANIQLRSDEECRQVYPGKITDNMLCAGTKEGGKDSCEGDSGGPLVCNRTLYGIVSWGDFPCGQPDRPGVYTRVSRYVLWIRETIRKYETQQQKWLKGPQ | soluble
MWPTHDLPILSNKSLILRKLQIEDTPRLVELAQDPAMRNFTTIPSPFTVENALEFISSSSVPTDSLVRWAIATADKPSIYLGTIELRAQSPICVDIGYSLHPHARGLGIMPKAVRLVSNYALSVGFHRVEIKIRTSNVASRRATERARATFEGIAHKAELHRGSIYDLAIYSITS | not soluble
MWSEYSLEVVDAVARNGSFSAAAQELHRVPSAVSYTVRQLEEWLAVPLFERRHRDVELTPAGVWFLQEGRSVIKKMQITRQQCQQIANGWRGQLSIAVDDIVKPARMRQMIVDFYRHFPDVELIVFQEVFNGVWDALADGRVELAIGATRSIPVGGRYAFRDMGMLSWDCVVASDHPLAKMEGPLSDDVLRNWPSLVREDTSRSLPKRTTWLLDNQKRVVVPDWESSATCLSAGLCVGMVPSHFARPWIDRGEWTALALENPFPDAACCLTWQQNDASPALNWMLDYLGDSDTLNREWLRAPERSAPARCLNDDNRQTGHPLPSGAQPDGGALR | not soluble
MWVEKKKDKKGNITYQYRERYTDPRTGKTQKVTTTLAKNTKQAENAARRELEIKIQKILTDYEEEKRLENLIKNEGVIPNDKTLEDMIKEWFDYIQDPKSKERKKGSTLSGYSYGIDSLLNEFLVIEKDKRIQDLTFDDIQAFYDRMIFDFEYQKSYIKRFRAIIRGAFTLAYKKRYIKNLDAINLSKIVTPAKTVDDLINEQVPRYLEKAEAEQIFQVLNGYNPLYTQILELQFHTGMRFGELIALESKNFHDGFLLDIHGTYDHATRSHTRGQKVPPKTRKSFRTIELGDAAVQIIKDRMYHNHFIKNKNSDFLFVTSNDRPYDLGTINSFIASHQIEFNTSTKVSTHVFRHTHISMLAEKSIPIQVIMDRVGHEDRETTEKIYMHVTKKQKTDLVKTLNEL | not soluble
MYALFLLASLLGAALAGPVLGLKECTRGSAVWCQNVKTASDCGAVKHCLQTVWNKPTVKSLPCDICKDVVTAAGDMLKDNATEEEILVYLEKTCDWLPKPNMSASCKEIVDSYLPVILDIIKGEMSRPGEVCSALNLCESLQKHLAELNHQKQLESNKIPELDMTEVVAPFMANIPLLLYPQDGPRSKPQPKDNGDVCQDCIQMVTDIQTAVRTNSTFVQALVEHVKEECDRLGPGMADICKNYISQYSEIAIQMMMHMQPKEICALVGFCDEVKEMPMQTLVPAKVASKNVIPALELVEPIKKHEVPAKSDVYCEVCEFLVKEVTKLIDNNKTEKEILDAFDKMCSKLPKSLSEECQEVVDTYGSSILSILLEEVSPELVCSMLHLCSGTRLPALTVHVTQPKDGGFCEVCKKLVGYLDRNLEKNSTKQEILAALEKGCSFLPDPYQKQCDQFVAEYEPVLIEILVEVMDPSFVCLKIGACPSAHKPLLGTEKCIWGPSYWCQNTETAAQCNAVEHCKRHVWN | soluble
